Earlier results in US6699832B2 (Pfizer Inc., priority 2000, dated 2004).
Where no end group is shown, it is not given here.

Experiments:
[1] = tested on: neurotensin-1 and neurotensin-2 receptors; conditions: non-selective antagonist
[2] = target: neurotensin-2 receptor (Homo sapiens, UniProt O95665); conditions: read-out: binding affinity at the neurotensin-2 receptor
[3] = target: neurotensin-1 receptor (Homo sapiens, UniProt P30989); conditions: read-out: binding affinity at the neurotensin-1 receptor
Sequence of neurotensin-1 receptor (P30989 whole entry): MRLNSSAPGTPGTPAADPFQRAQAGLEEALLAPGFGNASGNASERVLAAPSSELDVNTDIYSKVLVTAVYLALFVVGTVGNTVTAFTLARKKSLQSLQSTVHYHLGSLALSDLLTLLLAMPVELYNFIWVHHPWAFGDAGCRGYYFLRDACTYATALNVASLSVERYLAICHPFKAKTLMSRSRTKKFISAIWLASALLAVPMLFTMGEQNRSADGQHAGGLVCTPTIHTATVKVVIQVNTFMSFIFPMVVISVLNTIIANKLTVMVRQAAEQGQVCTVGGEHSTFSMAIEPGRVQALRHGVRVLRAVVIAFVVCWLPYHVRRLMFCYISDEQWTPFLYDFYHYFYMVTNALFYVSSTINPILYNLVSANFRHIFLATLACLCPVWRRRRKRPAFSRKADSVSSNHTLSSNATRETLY

Sequence of neurotensin-2 receptor (O95665 whole entry): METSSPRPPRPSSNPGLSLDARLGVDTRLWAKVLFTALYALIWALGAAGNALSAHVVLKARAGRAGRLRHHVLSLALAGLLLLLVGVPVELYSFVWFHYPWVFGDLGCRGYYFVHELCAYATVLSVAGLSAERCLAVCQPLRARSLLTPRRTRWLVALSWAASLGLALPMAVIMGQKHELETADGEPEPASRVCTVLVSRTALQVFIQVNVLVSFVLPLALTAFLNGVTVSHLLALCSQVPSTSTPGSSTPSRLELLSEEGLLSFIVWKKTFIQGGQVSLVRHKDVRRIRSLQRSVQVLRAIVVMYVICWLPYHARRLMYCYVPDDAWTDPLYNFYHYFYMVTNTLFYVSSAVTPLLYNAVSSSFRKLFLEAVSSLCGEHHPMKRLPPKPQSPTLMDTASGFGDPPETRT

| Compound | affinity at neurotensin-1 versus neurotensin-2 receptors (selectivity) [1] | Kd [2] [µM] | Kd [3] [µM] |
| --- | --- | --- | --- |
| COc1cccc(OC)c1-c1cc(C(=O)NC2(C(=O)O)C3CC4CC(C3)CC2C4)nn1-c1ccc(C(=O)N(C)CCCN(C)C)cc1C(C)C (stereo not drawn) [SR142948A] | equal affinity |  |  |
| Trp11 NT(1-13): NT(1-13) in which amino acid 11 is tryptophan; selective neurotensin-1 receptor agonist (QLYENKPRRPWIL; ends and bridges not checked; UniProt P30990 151-163, looked up, variant Y11W) |  | ~0.027 | ~0.001 |
